Values quoted from earlier work, collected in US20100267610A1, “Polypeptide comprising a knottin protein moiety” (priority 2007, published 2010).
Where no end group is shown, it is not given here.

Molecular target: T1, PTH-1 receptor (P1R) (Homo sapiens, UniProt Q03431)
T1 sequence (Q03431 27-593): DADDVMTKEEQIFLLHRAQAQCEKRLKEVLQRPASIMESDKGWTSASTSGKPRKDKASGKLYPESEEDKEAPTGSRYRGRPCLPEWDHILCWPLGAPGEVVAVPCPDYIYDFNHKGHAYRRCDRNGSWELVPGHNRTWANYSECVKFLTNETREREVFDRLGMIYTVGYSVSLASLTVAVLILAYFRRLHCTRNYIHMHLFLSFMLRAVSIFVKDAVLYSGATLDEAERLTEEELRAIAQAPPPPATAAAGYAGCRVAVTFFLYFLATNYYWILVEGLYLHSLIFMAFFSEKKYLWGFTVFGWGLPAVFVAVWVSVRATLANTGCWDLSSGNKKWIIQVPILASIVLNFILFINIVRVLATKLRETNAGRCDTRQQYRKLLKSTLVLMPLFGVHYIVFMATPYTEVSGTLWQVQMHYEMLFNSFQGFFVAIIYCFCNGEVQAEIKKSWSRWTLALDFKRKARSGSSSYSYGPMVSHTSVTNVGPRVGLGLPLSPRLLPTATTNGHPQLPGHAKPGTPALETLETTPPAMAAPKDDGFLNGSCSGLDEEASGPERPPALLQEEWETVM
Details: Shimizu et al. 2000

In the case of “PTH (1-14): shorter native analog of PTH, residues 1-14, from the literature (SVSEIQLMHNLGKH-NH2; UniProt P01270 32-45, looked up, fragment)”, the “activation of cAMP formation in cells” value is given as “able to activate cAMP formation at high micromolar concentrations”.
